Literature values in paper PMC8864681.

Assays:
[1] = biological target: Asp14 (UniProt position 40, ERQHMDSSTSA)
[2] = biological target: Asp67 (UniProt position 1513, LKPGVDYTITV)
[3] = biological target: Asp28 (UniProt position 50, MTDDIDEVRWE)
[4] = biological target: Asp26 (UniProt position 26, KLVVVDFSATW)

**Q.** For “Ribonuclease A (pancreatic ribonuclease) (Bos taurus)”, which pKa [1] is on record?
**A.** The pKa was 2.0.

**Q.** Which pKa [2] does the source give for “Fibronectin, tenth type III cell adhesion module (FN10) (Homo sapiens)” here?
**A.** Its pKa is 4.2.

**Q.** For “T-cell surface antigen CD2 (cell adhesion molecule CD2) (Rattus rattus as printed ('black rat'); the PDB 1HNG source is commonly annotated as rat (Rattus norvegicus))”, which pKa [3] is on record?
**A.** The pKa was 3.57.

**Q.** Which pKa [4] does the source give for “Thioredoxin (recombinant human) (Homo sapiens)” here?
**A.** Its pKa is 9.9.
